Assay [1] concerns the target T1, MUC1 60-mer peptide NH2-(…)3-COOH (biotinylated in the ELISAs and selections).
T1 construct: also called biotinylated MUC1 60-mer
Description: SPR (BIAcore), MUC1 60-mer peptide antigen; the 3.5-fold end is tied to 5C8 by paragraph 206; best variant, 5C8; Fab on MUC1 peptide chip. How it is done:
(§1) The selected PH1 and the affinity-matured antibodies were evaluated for affinity by surface plasmon resonance (SPR) on a BIAcore 2000 apparatus (BIAcore AB, Uppsala, Sweden). Channels of a biotin chip were coated with a MUC1 15-mer, containing the minimal PH1 epitope, PAP, (Ac-PDTRPAPGSTAPPAL-NH₂, (SEQ ID NO:40) 50 RU or 320 RU) or a 60-mer (NH₂-([…])₃-COOH (i.e., containing three copies of SEQ ID NO:8 (von Mensdorff-Pouilly et al., Tumor Biol., 19: 186-195 (1998), 50 RU) in HBS-EP buffer (Pharmacia). One surface was blocked with biotin (15 RU) and used as a negative control. The antibodies were injected in HBS-EP buffer. To minimize rebinding of the antigen binding fragments, the flow speed was 30 μl/sec. Affinity calculation was performed with the BIA-evaluation software provided by the BIAcore. The affinities of the Fabs were calculated according to a 1:1 stoichiometry at steady state.
(§2) The CDR3 variants were extensively tested in BIAcore for the kinetics of the MUC1 peptide interaction. […] Using this off-rate screening with Fabs in the periplasmic extract of E. coli cultures, the clones in Table 9 as well as many more were screened for improvement in off-rate. […] To get accurate measurements, a Kd assay on the BIAcore was used with the MUC1 15-mer (there was no difference in the kinetics of interaction when the MUC1 60-mer was used, data not shown). […]

For assay [2], the target named is T2, MUC1 15-mer Ac-PDTRPAPGSTAPPAL-NH2.
T2 construct: coated on a biotin chip
T2 peptide: Ac-PDTRPAPGSTAPPAL-NH2
The assay can be described thus: SPR (BIAcore) Kd assay on MUC1 15-mer. How it is done:
as §1, §2

The Kd is the concentration at which binding is half-saturated. Lower therefore signals a tighter complex.

T1 sequence (peptide, as listed by the source): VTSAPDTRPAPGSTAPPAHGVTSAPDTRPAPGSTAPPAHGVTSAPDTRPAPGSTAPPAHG

B1: 5C8 (Fab, V domains shown)
VH: QVQLVQSGGGLVQPGGSLRLSCAASGFTFRSNAMGWVRQAPGKGLEWVSGISGSGGSTYYADSVKGRFTISRDNSKNTLYLQMNSLRAEDTAVYYCAKHTGRGVWDPIGYWGQGTLVTVSS
VL: EIVLTQSPLSLPVTPGEPASISCRSSQSLLHSNGYTYLDWYLQKPGQSPQLLIYSGSHRASGVPDRFSGSVSGTDFTLRISRVEAEDVGVYYCMQGLQSPFTFGPGTKVDIKR
notes: PH1 Fab variant; also called clone 5C8
Take B1: the Kd in assay [1] is about 400 nM. Besides, the “fold improvement of Kd over wild type PH1 Fab” value in assay [2] amounted to 3.5 fold.

(Values after patent publication US20020146750A1 (published 2002).)
